biological target: SARS-CoV-2 spike protein on Ramos-S cells (SARS-CoV-2) (UniProt P0DTC2); assay: flow cytometry on cells

Row | Substance | median fluorescence intensity
1 | trACE2-Fc-H429Y (from UniProt Q9BYF1 19-615) (Fc fusion) | 11600
2 | flACE2-Fc-H429F (from UniProt Q9BYF1 19-740) (Fc fusion) | 16900
3 | trACE2-Fc-E430G (from UniProt Q9BYF1 19-615) (Fc fusion) | 16700
4 | EflACE2-Fc-E430G (from UniProt Q9BYF1 19-740) (Fc fusion) | 21000
5 | flACE2-Fc-H429Y (from UniProt Q9BYF1 19-740) (Fc fusion) | 12500
6 | trACE2-Fc-H429F (from UniProt Q9BYF1 19-615) (Fc fusion) | 16300
7 | EflACE2-Fc-H429F (from UniProt Q9BYF1 19-740) (Fc fusion) | 20500
8 | flACE2-Fc-E430G (from UniProt Q9BYF1 19-740) (Fc fusion) | 17300
9 | EflACE2-Fc-H429Y (from UniProt Q9BYF1 19-740) (Fc fusion) | 15100

From PMC9369017
